For experiment [1], the target named is T1, Rhesus SLC34A2 (Rhesus, UniProt F7HDA3 1-690).
T1 construct: whole, on cells
T1 sequence: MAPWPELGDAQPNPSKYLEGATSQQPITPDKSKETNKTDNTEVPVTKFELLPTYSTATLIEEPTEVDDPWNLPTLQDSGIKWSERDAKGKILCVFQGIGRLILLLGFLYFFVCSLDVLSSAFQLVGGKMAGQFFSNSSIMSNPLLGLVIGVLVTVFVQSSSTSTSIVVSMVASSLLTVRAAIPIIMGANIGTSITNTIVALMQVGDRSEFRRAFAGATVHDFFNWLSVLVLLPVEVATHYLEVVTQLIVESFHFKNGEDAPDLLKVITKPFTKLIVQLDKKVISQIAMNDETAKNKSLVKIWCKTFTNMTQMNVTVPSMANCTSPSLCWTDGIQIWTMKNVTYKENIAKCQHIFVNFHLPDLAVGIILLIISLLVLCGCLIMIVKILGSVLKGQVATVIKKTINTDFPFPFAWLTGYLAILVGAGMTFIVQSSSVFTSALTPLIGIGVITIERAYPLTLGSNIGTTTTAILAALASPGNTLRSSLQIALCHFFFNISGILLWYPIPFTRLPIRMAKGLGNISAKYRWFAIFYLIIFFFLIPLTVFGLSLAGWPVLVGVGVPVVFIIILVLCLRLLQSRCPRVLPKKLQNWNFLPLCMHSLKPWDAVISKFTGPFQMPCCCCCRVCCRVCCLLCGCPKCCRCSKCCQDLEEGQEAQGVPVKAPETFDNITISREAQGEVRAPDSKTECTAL
Nature of the experiment: FACS, HEK293/Rhesus SLC34A2 cells. Background: In flow cytometry, cells or beads pass a laser one at a time.

Experiment [2] deals with T1, Rhesus SLC34A2. Nature of the experiment: FACS, HEK293/Rhesus SLC34A2 cells. This is another data set of the same source.
Experiment [3] addresses T2, human SLC34A2 (human, UniProt O95436 1-690).
T2 sequence (looked up): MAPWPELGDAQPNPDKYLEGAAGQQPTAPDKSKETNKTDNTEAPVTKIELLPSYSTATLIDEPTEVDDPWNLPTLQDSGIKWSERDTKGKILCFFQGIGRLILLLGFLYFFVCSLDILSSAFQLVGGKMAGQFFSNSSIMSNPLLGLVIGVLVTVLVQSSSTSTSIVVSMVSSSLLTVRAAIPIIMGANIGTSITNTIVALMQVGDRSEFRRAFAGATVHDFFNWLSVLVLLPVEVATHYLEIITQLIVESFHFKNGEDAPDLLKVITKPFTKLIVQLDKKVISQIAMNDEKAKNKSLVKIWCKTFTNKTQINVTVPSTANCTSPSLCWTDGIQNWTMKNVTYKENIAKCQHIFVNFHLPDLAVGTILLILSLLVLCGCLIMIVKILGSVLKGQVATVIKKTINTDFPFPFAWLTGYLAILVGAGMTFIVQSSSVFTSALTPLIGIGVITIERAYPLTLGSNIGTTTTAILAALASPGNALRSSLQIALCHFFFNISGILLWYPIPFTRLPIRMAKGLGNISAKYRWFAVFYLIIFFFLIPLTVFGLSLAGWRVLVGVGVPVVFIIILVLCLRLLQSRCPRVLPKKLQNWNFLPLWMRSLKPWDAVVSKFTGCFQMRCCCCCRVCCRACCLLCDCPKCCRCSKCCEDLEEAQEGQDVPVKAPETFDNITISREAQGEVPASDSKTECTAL
In words: cell-based or functional assay.

The target in experiment [4] is T2, human SLC34A2. In words: FACS, RMG-1 cells. Put shortly:
(§1)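 Flow cytometric read-out of bound humanized antibody, detected with a fluorescent conjugated secondary antibody. Cells (transfected HEK293/H_SLC34A2, OVCAR3, RMG-1) were exposed to antibody for 60 minutes at 4° C. before washing and 30-minute secondary staining at 4° C.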

The target in experiment [5] is T2, human SLC34A2. Nature of the experiment: FACS, HEK293/human SLC34A2 cells. Put shortly:
as §1

Experiment [6] deals with T2, human SLC34A2. In words: FACS, OVCAR3 cells. Put shortly:
as §1

Read-outs that look alike come from different tables or passages of the source.

The EC50 is the concentration needed to bring the measured effect to its halfway point. Low values mean a more potent agent, high ones a less potent agent.

B1: 91C9F1.p1.z7 hIgG1 (antibody, V domains shown)
VH: QVQLVQSGAEVKKPGSSVKVSCKTSGFFFTEYIIHWVRQAPGQGLEWIGGIIPNNDVTNYKQNFRGRVTLTADKSTSTAYMELSSLRSEDTAVYYCARWRNAYYSAMDSWGQGTTVTVSS
VL: DIQVTQSPSSLSTSVGDRVTITCTASQDVGTAVAWYQQKPGKSPKLLIYWASTRHTGVPERFTGSGSGTDFTLTISSVQPEDVATYFCQQYRTSPLTFGVGTKVEIK
notes: humanized hIgG1
Take B1: the EC50 worked out at 4.2 nM in the experiment with Rhesus SLC34A2 [1]; 4.2 nM with Rhesus SLC34A2 [2]; 2.25 nM with human SLC34A2 [4]; 1.67 nM in the experiment with human SLC34A2 [5]; 2.41 nM in the experiment with human SLC34A2 [6]. Besides, the “Top (MFI)” value with Rhesus SLC34A2 [2] came to 9500 MFI. For the same molecule, the “ADCC reporter EC50” value with human SLC34A2 [3] worked out at 2.12 nM. The “ADCC reporter Top (MFI)” value with human SLC34A2 [3] worked out at 124000 MFI. Moreover, the Top in the experiment with human SLC34A2 [4] worked out at 9720 MFI; in the experiment with human SLC34A2 [5] it was 37400 MFI; with human SLC34A2 [6], 20500 MFI.

B2: 30H9B8F9.p1.z5 hIgG1 (antibody, V domains shown)
VH: QVQLVQSGAEVKKPGASVKVSCKTSGYTFTTNNMHWVRQAPGQGLEWIGAIYPGSGATAYNQKFKGRVTMTADTSTSTVYMELSSLRSEDTAVYYCARGMYGHGAMDYWGQGTLVTVSS
VL: DIQLTQSPSFLSASVGDRVTITCKASQDVGTAVAWYQQKPGKAPKLLIYWATTRHSGVPSRFSGSGSGTEFTLTISSLQPEDFATYYCQQYSSNPLTFGQGTKLEIK
notes: humanized hIgG1
Take B2: the half-maximal effective concentration (EC50) was determined as 0.7 nM in the experiment with Rhesus SLC34A2 [1]; 0.7 nM with Rhesus SLC34A2 [2]; 1.39 nM with human SLC34A2 [4]; 1.55 nM in the experiment with human SLC34A2 [5]; 0.94 nM in the experiment with human SLC34A2 [6]. In the experiment with Rhesus SLC34A2 [2], the “Top (MFI)” value is 16000 MFI. For the same molecule, in the experiment with human SLC34A2 [3], the “ADCC reporter EC50” value was 0.72 nM. Further, the “ADCC reporter Top (MFI)” value in the experiment with human SLC34A2 [3] was determined as 135000 MFI. Besides, the Top came to 10900 MFI in the experiment with human SLC34A2 [4] and 35200 MFI with human SLC34A2 [5].

Source of the values: patent publication US20240301052A1 (LANOVA MEDICINES DEVELOPMENT, published 2024).
